# Experimental data published in patent US7575909B2, “Oxidoreductase from pichia capsulata” (IEP GmbH, priority 2003, dated 2009).
# Columns and labels:
# [1] = Enzyme activity on expression of the oxidoreductase in E. coli; assay type: biochemical, Escherichia coli
# Text: Competent Escherichia coli StarBL21 (De3) cells (Invitrogen) were transformed with the expression construct pET21-PC#10 coding for the oxidoreductase according to the invention.
# (§1) The transformed strain was cultivated in an LB medium (1% tryptone, 0.5% yeast extract, 1% NaCl) with ampicillin (50 ig/ml) until an optical density, measured at 500 nm, of 0.5 was reached. The production of the recombinant oxidoreductase protein was initiated by adding isopropylthiogalactoside (IPTG) at a final concentration of 1 mM. The induction batch was incubated for another 15 h at 25° C. and 220 rpm.
# Competent Escherichia coli RB791 cells were transformed with the expression construct pQE30-PC#12 coding for the oxidoreductase according to the invention.
# as §1, with “adding IPTG” for “adding isopropylthiogalactoside (IPTG)”, “of 0.1” for “of 1”, “15 hours” for “15 h”, “rpm. The enzyme activity achieved amounted to approx. 1000 U/g of wet cell mass.” for “rpm.”
# [2] = pH stability of the recombinant oxidoreductase; assay type: physicochemical; conditions: pH values above 9.0 and below 5.0
# Method: The determination of the activity of the recombinant oxidoreductase was examined by storage in the buffer systems mentioned in Table 3. For this purpose, the various buffers (50 mM) were prepared in a pH range of 4 to 11, and the oxidoreductase produced according to Example 4 was diluted therewith. After 30, 60 and 300 min of incubation, 10 μl were removed from the batch and used in the activity test according to Example 1.
# Thereby, the initial value is the measured value which was obtained immediately after diluting (1:20) the enzyme in the potassium phosphate buffer 50 mM pH=7.0. Under the given conditions, said value corresponded to an extinction variation of approx. 0.70/min and was set as a 100% value, and all the following measured values were set in relation to said value.
# [3] = Temperature optimum of the oxidoreductase; assay type: biochemical
# Method: In order to determine the optimum test temperature, the enzyme activity was measured in the standard measuring batch in a temperature range of 15° C. to 70° C.
# [4] = Temperature stability of the oxidoreductase; assay type: physicochemical; conditions: after 30 min
# Method: The temperature stability was determined for the range of 15° C. to 70° C. in a manner analogous to that described under Example 5.2. […] Also in this case, the measured value obtained immediately after diluting the purified oxidoreductase in a potassium phosphate buffer 50 mM pH=7.0 was used as the initial value. Said value was set as a 100% value also in this example.
# [5] = Solvent stability of the oxidoreductase; assay type: physicochemical; conditions: RT
# Method: The enzyme stability of the oxidoreductase from P. capsulata was examined in the presence of organic solvents. For this purpose, the oxidoreductase was in each case diluted 1:20 with the indicated solvent mixtures (in case of water-miscible organic solvents) and was incubated at room temperature (20° C. to 24° C.; RT). Subsequently, 10 μl of the enzyme solution were used in the standard test batch. Also in this case, the initial value was equalled to 100% after dilution in the buffer (potassium phosphate buffer (KPP) 100 mM, pH=7.0), and all the other values were set in relation to said initial value.
# In case of water-immiscible organic solvents, the dilution likewise took place in a potassium phosphate buffer, the same volume of an organic solvent was added to the batch and the batch was incubated at RT in a thermomixer at 170 rpm. The activity was measured from the aqueous phase.
molecule,measurement,setting,value
"oxidoreductase from Pichia capsulata: NADH-dependent (S)-specific zinc-dependent carbonyl reductase from Pichia capsulata, amino acid sequence SEQ ID NO: 9, 341 amino acids (protein, listed as Pichia capsulata) MSALSKTQAGYIFKKGAGHIVKAEVPIPKPTGAQSLLRVKAAGMCHSDLHVIGETLEVPTDGYVLGHEIAGELVEIGDSVNPEVFKVGGRYAVHGLNSCGSCEMCRTGHDNDCTGNESKWYGLGISGGYQQYLLVPNSHHLLPIPDNVSYEVAAATSDAVLTPYHAIKNSGVTPSSKVLMFGLGGLGSNALQILKAFGAYVVAVDVKPASKAIADEFKADEFYTDISQSSWKPASFDYCFDFVSLQVTFDICQKYIKSHGTIFPVGLGSSKLTFDLGNLALREVKIVGNFWGTSQEQIEAMELVSSGRVKPQVHTTELENLPESLEKLEEGKINGRLVMLP",enzyme activity achieved,"[1]; E. coli RB791, construct pQE30-PC#12, 0.1 mM IPTG",approx. 1000 U/g of wet cell mass
same,enzyme activity achieved,"[1]; E. coli StarBL21 (De3), construct pET21-PC#10, 1 mM IPTG",approx. 6000 U/g of wet cell mass
same,effect of incubation at extreme pH,[2],immediate deactivation
same,Activity in U/ml undiluted enzyme,[3]; 15 ° C.,73 U/ml
same,Activity in U/ml undiluted enzyme,[3]; 20 ° C.,83 U/ml
same,Activity in U/ml undiluted enzyme,[3]; 25 ° C.,128 U/ml
same,Activity in U/ml undiluted enzyme,[3]; 30 ° C.,135 U/ml
same,Activity in U/ml undiluted enzyme,[3]; 35 ° C.,163 U/ml
same,Activity in U/ml undiluted enzyme,[3]; 40 ° C.,170 U/ml
same,Activity in U/ml undiluted enzyme,[3]; 45 ° C.,176 U/ml
same,Activity in U/ml undiluted enzyme,[3]; 50 ° C.,122 U/ml
same,Activity in U/ml undiluted enzyme,[3]; 55 ° C.,45 U/ml
same,Activity in U/ml undiluted enzyme,[3]; 60 ° C.,0 U/ml
same,Activity in U/ml undiluted enzyme,[3]; 65 ° C.,0 U/ml
same,Activity in U/ml undiluted enzyme,[3]; 70 ° C.,0 U/ml
same,optimum temperature (maximum activity),"[3]; standard measuring batch, 15° C. to 70° C., listed as recombinant oxidoreductase from P. capsulata",45 °C
same,enzyme activity after incubation at 55° C.,[4],can no longer be detected
same,Activity,"[5]; 5% EtOH, 8 h",77%
same,Activity,"[5]; 5% EtOH, 24 h",77%
same,Activity,"[5]; 5% isopropanol, 8 h",77%
same,Activity,"[5]; 5% isopropanol, 24 h",77%
same,Activity,"[5]; 10% DSMO, 8 h",42%
same,Activity,"[5]; 10% DSMO, 24 h",45%
same,Activity,"[5]; 10% EtOH, 8 h",77%
same,Activity,"[5]; 10% EtOH, 24 h",77%
same,Activity,"[5]; 10% isopropanol, 8 h",72%
same,Activity,"[5]; 10% isopropanol, 24 h",72%
same,Activity,"[5]; 20% DSMO, 8 h",30%
same,Activity,"[5]; 20% DSMO, 24 h",30%
same,Activity,"[5]; 20% EtOH, 8 h",100%
same,Activity,"[5]; 20% EtOH, 24 h",100%
same,Activity,"[5]; 20% isopropanol, 8 h",46%
same,Activity,"[5]; 20% isopropanol, 24 h",46%
same,Activity,"[5]; 30% EtOH, 8 h",64%
same,Activity,"[5]; 30% EtOH, 24 h",64%
same,Activity,"[5]; 30% isopropanol, 8 h",18%
same,Activity,"[5]; 30% isopropanol, 24 h",18%
same,Activity,"[5]; Buffer KPP 100 mM pH = 7, 1 mM MgCl2, 8 h",100%
same,Activity,"[5]; Buffer KPP 100 mM pH = 7, 1 mM MgCl2, 24 h",100%
same,Activity,"[5]; butyl acetate (same volume, two-phase), 8 h",53%
same,Activity,"[5]; butyl acetate (same volume, two-phase), 24 h",28%
same,Activity,"[5]; chloroform (same volume, two-phase), 8 h",51%
same,Activity,"[5]; chloroform (same volume, two-phase), 24 h",0%
same,Activity,"[5]; cyclohexane (same volume, two-phase), 8 h",85%
same,Activity,"[5]; cyclohexane (same volume, two-phase), 24 h",70%
same,Activity,"[5]; diethyl ether (same volume, two-phase), 8 h",100%
same,Activity,"[5]; diethyl ether (same volume, two-phase), 24 h",100%
same,Activity,"[5]; diisopropyl ether (same volume, two-phase), 8 h",100%
same,Activity,"[5]; diisopropyl ether (same volume, two-phase), 24 h",100%
same,Activity,"[5]; ethyl acetate (same volume, two-phase), 8 h",2%
same,Activity,"[5]; ethyl acetate (same volume, two-phase), 24 h",0%
same,Activity,"[5]; heptane (same volume, two-phase), 8 h",74%
same,Activity,"[5]; heptane (same volume, two-phase), 24 h",43%
same,Activity,"[5]; hexane (same volume, two-phase), 8 h",60%
same,Activity,"[5]; hexane (same volume, two-phase), 24 h",20%
same,Activity,"[5]; methyl tert-butyl ether (same volume, two-phase), 8 h",100%
same,Activity,"[5]; methyl tert-butyl ether (same volume, two-phase), 24 h",100%
